Data: patent US20240150491A1 (Genentech, published 2024)

T1: cynomolgus monkey KLK5 (cynomolgus monkey, UniProt Q9Y337 67-293 (human entry))
T1 chain: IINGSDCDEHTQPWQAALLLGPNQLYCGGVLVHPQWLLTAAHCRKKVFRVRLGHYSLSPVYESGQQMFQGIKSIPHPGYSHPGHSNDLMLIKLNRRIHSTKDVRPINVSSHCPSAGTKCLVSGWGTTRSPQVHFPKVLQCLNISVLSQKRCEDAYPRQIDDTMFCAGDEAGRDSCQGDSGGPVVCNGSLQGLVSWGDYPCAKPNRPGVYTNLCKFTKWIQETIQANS

T2: human KLK5 (human, UniProt Q9Y337 67-293)
T2 sequence: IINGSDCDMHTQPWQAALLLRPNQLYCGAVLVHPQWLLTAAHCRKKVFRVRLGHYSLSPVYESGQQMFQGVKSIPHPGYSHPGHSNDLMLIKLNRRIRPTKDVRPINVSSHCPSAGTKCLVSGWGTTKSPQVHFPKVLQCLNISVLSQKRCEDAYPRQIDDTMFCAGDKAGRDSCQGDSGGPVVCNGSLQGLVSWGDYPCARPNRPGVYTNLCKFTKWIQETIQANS


Legend:
Test in all cases: cell-based or functional assay
[1] = target: T3, cyno KLK7 (SEQ ID NO: 6 plus a C-terminal FLAG tag) (cynomolgus monkey, UniProt P49862 30-253 (human entry))
cynomolgus monkey KLK5 = target: T1, cynomolgus monkey KLK5
[2] = target: T4, human KLK7 (SEQ ID NO: 4 plus a C-terminal FLAG tag) (human, UniProt P49862 30-253)
human KLK5 = target: T2, human KLK5
[3] = target: T3, cyno KLK7 (SEQ ID NO: 6 plus a …); remark: listed apart in the source
[4] = target: T4, human KLK7 (SEQ ID NO: 4 plus a …); remark: listed apart in the source

T4 sequence (P49862 30-253): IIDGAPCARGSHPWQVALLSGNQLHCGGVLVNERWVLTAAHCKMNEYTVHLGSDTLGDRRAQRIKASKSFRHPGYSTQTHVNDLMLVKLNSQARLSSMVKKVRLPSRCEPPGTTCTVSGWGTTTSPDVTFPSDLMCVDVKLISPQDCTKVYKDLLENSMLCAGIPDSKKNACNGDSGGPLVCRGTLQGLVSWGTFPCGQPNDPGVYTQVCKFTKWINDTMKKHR
T3 sequence (P49862 other isoform, or with tags, fused parts or gaps): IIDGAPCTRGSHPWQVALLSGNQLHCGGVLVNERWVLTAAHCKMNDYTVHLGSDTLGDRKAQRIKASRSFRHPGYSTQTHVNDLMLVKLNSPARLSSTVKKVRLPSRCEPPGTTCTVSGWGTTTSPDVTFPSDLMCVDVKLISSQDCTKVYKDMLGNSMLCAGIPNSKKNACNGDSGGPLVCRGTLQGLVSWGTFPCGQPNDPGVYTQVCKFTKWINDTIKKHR

IC50, inhibition of KLK7 cleavage of Mca-RPKPVE-Nval-WRK(Dnp) (bivalency corrected) [1] [nM] | IC50, inhibition of KLK5 cleavage of Boc-Val-Pro-Arg-AMC (bivalency corrected) (cynomolgus monkey KLK5) [nM] | IC50, inhibition of KLK7 cleavage of Mca-RPKPVE-Nval-WRK(Dnp) (bivalency corrected) [2] [nM] | IC50, inhibition of KLK5 cleavage of Boc-Val-Pro-Arg-AMC (bivalency corrected) (human KLK5) [nM] | IC50, inhibition of KLK7 cleavage of MCA peptide substrate (bivalency not accounted for) [3] [nM] | IC50, inhibition of KLK7 cleavage of MCA peptide substrate (bivalency not accounted for) [4] [nM] | Binder
> 10 | 0.56 | > 10 | 0.46 | – | – | hu10C5VY (antibody, V domains shown) VH: EVQLVESGGGLVQPGGSLRLSCAASGFSLSSYGVTWVRQAPGKGLEWIGYITSVYGVSYYASWAKSRSTISRDTSKNTVYLQMGSLRAEDMAVYYCARENPDYGYAYDAWGQGTTVTVSS VL: AIRMTQSPSSFSASTGDRVTITCQASESISNELSWYQQKPGKAPKLLIYYASTLASGVPSRFSGSGSGTDFTLTISSLQPEDFATYYCAQGYGSSGVENVFGGGTKVEIK
0.37 | 0.73 | 0.37 | 0.67 | – | – | hu.10C5VY.hu14H11c.L2H11 WT (bispecific antibody, human IgG1, kappa, N297G) heavy 1: not shown light 1: DIQMTQSPSSLSASVGDRVTITCLASEDIASSVSWYQKKPGKAPKLLIYGASNLESGVPSRFSGSGSGTDYTLTISSLQPEDFATYYCLGGYSYSSTGTAFGGGTKVEIKRTVAAPSVFIFPPSDEQLKSGTASVECLLNNFYPREAKVQWKVDNALQSGNSQESVTEQDSKDSTYSLSSTLTLSKADYEKHKVYACEVTHQGLSSPVTKSFNRGEC heavy 2: EVQLVESGGGLVQPGGSLRLSCAASGFSLSSYGVTWVRKAPGKGLEWIGYITSVYGVSYYASWAKSRSTISRDTSKNTVYLQMGSLRAEDMAVYYCARENPDYGYAYDAWGQGTTVTVSSASTKGPSVFPLAPSSKSTSGGTAALGCLVKDYFPEPVTVSWNSGALTSGVHTFPAVLQSSGLYSLESVVTVPSSSLGTQTYICNVNHKPSNTKVDKKVEPKSCDKTHTCPPCPAPELLGGPSVFLFPPKPKDTLMISRTPEVTCVVVDVSHEDPEVKFNWYVDGVEVHNAKTKPREEQYGSTYRVVSVLTVLHQDWLNGKEYKCKVSNKALPAPIEKTISKAKGQPREPQVYTLPPSREEMTKNQVSLSCAVKGFYPSDIAVEWESNGQPENNYKTTPPVLDSDGSFFLVSKLTVDKSRWQQGNVFSCSVMHEALHNHYTQKSLSLSPGK light 2: AIRMTQSPSSFSASTGDRVTITCQASESISNELSWYQEKPGKAPKLLIYYASTLASGVPSRFSGSGSGTDFTLTISSLQPEDFATYYCAQGYGSSGVENVFGGGTKVEIKRTVAAPSVFIFPPSDEQLKSGTASVKCLLNNFYPREAKVQWKVDNALQSGNSQESVTEQDSKDSTYSLSSTLTLSKADYEKHKVYACEVTHQGLSSPVTKSFNRGEC
0.36 | 0.58 | 0.34 | 0.54 | – | – | hu.10C5VY.hu14H11c.L2H11 LS (bispecific antibody, human IgG1, kappa, N297G) heavy 1: EQQLVESGGGLIQPGGSLRLSCAASGFSFSSSYYMSWVREAPGKGLEWVSSIYAGSSGAPYYAGWAKGRFTISRDNSKNTLYLQMNSLRAEDTAVYYCAREGFAETGGYGYAAYFNLWGPGTLVTVSSASTKGPSVFPLAPSSKSTSGGTAALGCLVKDYFPEPVTVSWNSGALTSGVHTFPAVLQSSGLYSLKSVVTVPSSSLGTQTYICNVNHKPSNTKVDKKVEPKSCDKTHTCPPCPAPELLGGPSVFLFPPKPKDTLMISRTPEVTCVVVDVSHEDPEVKFNWYVDGVEVHNAKTKPREEQYGSTYRVVSVLTVLHQDWLNGKEYKCKVSNKALPAPIEKTISKAKGQPREPQVYTLPPSREEMTKNQVSLWCLVKGFYPSDIAVEWESNGQPENNYKTTPPVLDSDGSFFLYSKLTVDKSRWQQGNVFSCSVLHEALHSHYTQKSLSLSPGK light 1: DIQMTQSPSSLSASVGDRVTITCLASEDIASSVSWYQKKPGKAPKLLIYGASNLESGVPSRFSGSGSGTDYTLTISSLQPEDFATYYCLGGYSYSSTGTAFGGGTKVEIKRTVAAPSVFIFPPSDEQLKSGTASVECLLNNFYPREAKVQWKVDNALQSGNSQESVTEQDSKDSTYSLSSTLTLSKADYEKHKVYACEVTHQGLSSPVTKSFNRGEC heavy 2: EVQLVESGGGLVQPGGSLRLSCAASGFSLSSYGVTWVRKAPGKGLEWIGYITSVYGVSYYASWAKSRSTISRDTSKNTVYLQMGSLRAEDMAVYYCARENPDYGYAYDAWGQGTTVTVSSASTKGPSVFPLAPSSKSTSGGTAALGCLVKDYFPEPVTVSWNSGALTSGVHTFPAVLQSSGLYSLESVVTVPSSSLGTQTYICNVNHKPSNTKVDKKVEPKSCDKTHTCPPCPAPELLGGPSVFLFPPKPKDTLMISRTPEVTCVVVDVSHEDPEVKFNWYVDGVEVHNAKTKPREEQYGSTYRVVSVLTVLHQDWLNGKEYKCKVSNKALPAPIEKTISKAKGQPREPQVYTLPPSREEMTKNQVSLSCAVKGFYPSDIAVEWESNGQPENNYKTTPPVLDSDGSFFLVSKLTVDKSRWQQGNVFSCSVLHEALHSHYTQKSLSLSPGK light 2: AIRMTQSPSSFSASTGDRVTITCQASESISNELSWYQEKPGKAPKLLIYYASTLASGVPSRFSGSGSGTDFTLTISSLQPEDFATYYCAQGYGSSGVENVFGGGTKVEIKRTVAAPSVFIFPPSDEQLKSGTASVKCLLNNFYPREAKVQWKVDNALQSGNSQESVTEQDSKDSTYSLSSTLTLSKADYEKHKVYACEVTHQGLSSPVTKSFNRGEC
– | – | – | – | 0.15 | 0.11 | 14H11 (antibody, V domains shown) VH: QSLEESGGDLVKPGASLTLTCTASGFSFSSSYYMCWVRQAPGKGLEWIASIYAGSSGAPYYAGWAKGRFTISKTSSTAVTLQMSSLTAADTATYFCAREGFAETGGYGYAAYFNLWGPGTLVTVSS VL: AIEMTQSPPSLSASVGETVRIRCLASEDIASSVSWYQQKPGKPPTLLIYGASNLESGVPPRFTGSGSGTDYTLTIGGVQAEDAATYYCLGGYSYSSTGTAFGAGTKVEIK
0.29 | > 10 | 0.29 | > 10 | – | – | hu.14H11c.L2H11-hIgG1 (antibody, V domains shown) VH: EQQLVESGGGLIQPGGSLRLSCAASGFSFSSSYYMSWVRQAPGKGLEWVSSIYAGSSGAPYYAGWAKGRFTISRDNSKNTLYLQMNSLRAEDTAVYYCAREGFAETGGYGYAAYFNLWGPGTLVTVSS VL: DIQMTQSPSSLSASVGDRVTITCLASEDIASSVSWYQQKPGKAPKLLIYGASNLESGVPSRFSGSGSGTDYTLTISSLQPEDFATYYCLGGYSYSSTGTAFGGGTKVEIK
